Data from patent publication WO2018134389A1.
Like-named read-outs stand apart in the source and are kept apart here.

How the values were obtained:
[1] = target: DC-SIGN ECD immobilised on a streptactin-functionalised SPR surface (human) (UniProt Q9NNX6)
[2] = target: DC-SIGN ECD immobilised on a streptactin-functionalised SPR surface (human) (UniProt Q9NNX6); remark: listed apart in the source

Chain of DC-SIGN ECD immobilised on a streptactin-functionalised SPR surface (human) (Q9NNX6 59-404): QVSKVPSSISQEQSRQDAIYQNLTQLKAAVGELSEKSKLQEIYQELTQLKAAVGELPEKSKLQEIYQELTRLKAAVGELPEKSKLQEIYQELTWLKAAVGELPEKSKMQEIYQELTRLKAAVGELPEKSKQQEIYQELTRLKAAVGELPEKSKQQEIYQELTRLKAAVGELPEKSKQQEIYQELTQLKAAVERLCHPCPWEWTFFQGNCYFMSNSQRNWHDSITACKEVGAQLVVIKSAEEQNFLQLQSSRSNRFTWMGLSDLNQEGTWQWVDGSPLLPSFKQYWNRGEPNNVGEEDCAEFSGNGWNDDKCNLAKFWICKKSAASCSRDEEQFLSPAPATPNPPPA
Chain of CHO-derived recombinant CMV glycoprotein B (soluble recombinant HCMV gB), untreated (P13201 25-907 limits assumed): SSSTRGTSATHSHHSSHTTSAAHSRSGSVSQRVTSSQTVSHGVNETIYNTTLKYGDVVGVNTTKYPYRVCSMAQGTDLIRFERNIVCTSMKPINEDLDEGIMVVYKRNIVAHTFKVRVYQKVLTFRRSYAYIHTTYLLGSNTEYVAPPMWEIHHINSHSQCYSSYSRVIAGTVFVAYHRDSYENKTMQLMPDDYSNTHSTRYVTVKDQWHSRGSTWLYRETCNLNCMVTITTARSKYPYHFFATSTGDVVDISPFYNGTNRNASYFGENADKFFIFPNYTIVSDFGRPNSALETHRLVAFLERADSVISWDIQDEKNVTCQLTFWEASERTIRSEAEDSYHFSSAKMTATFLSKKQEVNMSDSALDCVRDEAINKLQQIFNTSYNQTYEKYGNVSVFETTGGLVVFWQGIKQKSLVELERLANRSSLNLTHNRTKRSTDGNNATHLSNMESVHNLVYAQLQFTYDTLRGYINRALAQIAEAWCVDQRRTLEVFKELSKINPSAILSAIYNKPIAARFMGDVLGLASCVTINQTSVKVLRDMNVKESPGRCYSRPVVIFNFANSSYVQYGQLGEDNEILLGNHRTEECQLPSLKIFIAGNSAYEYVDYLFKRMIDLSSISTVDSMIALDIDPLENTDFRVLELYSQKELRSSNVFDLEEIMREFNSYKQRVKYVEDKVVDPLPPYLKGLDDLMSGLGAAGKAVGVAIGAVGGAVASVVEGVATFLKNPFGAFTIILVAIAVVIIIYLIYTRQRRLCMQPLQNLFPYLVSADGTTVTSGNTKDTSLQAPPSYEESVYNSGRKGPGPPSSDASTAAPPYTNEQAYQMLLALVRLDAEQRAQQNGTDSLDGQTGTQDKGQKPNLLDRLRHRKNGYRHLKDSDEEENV
Chain of HCMV gB treated with a(1-2,3,6)-mannosidase (P13201 25-907 limits assumed): as above

Row | Substance | Kd [1] [nM] | Kd [2] [nM]
1 | CHO-derived recombinant CMV glycoprotein B (soluble recombinant HCMV gB), untreated (from UniProt P13201 25-907) (ligand) | 0.014 | –
2 | HCMV gB treated with a(1-2,3,6)-mannosidase (from UniProt P13201 25-907) (ligand) | – | 0.149
